We go through three molecules from patent publication US20250019680, “ENGINEERED CAS13 FOR ULTRASENSITIVE NUCLEIC ACID DETECTION” (William Marsh Rice University, published 2025).

The target in data set [1] is T1, RBD #2L LwaCas13a (hnRNP A1 1-104 in Loop 1) (Leptotrichia wadei / Homo sapiens). In words: cleavage_in_vitro; collateral cleavage of RNaseAlert, 30 min. Particulars: label: body 32P for EMSA. Background: In EMSA bound probe runs differently from free probe, usually more slowly.
Data set [2] has as its target T2, RBD #6L LwaCas13a (ADAR1 126-202 in Loop 1) (Leptotrichia wadei / Homo sapiens).
T2 chain: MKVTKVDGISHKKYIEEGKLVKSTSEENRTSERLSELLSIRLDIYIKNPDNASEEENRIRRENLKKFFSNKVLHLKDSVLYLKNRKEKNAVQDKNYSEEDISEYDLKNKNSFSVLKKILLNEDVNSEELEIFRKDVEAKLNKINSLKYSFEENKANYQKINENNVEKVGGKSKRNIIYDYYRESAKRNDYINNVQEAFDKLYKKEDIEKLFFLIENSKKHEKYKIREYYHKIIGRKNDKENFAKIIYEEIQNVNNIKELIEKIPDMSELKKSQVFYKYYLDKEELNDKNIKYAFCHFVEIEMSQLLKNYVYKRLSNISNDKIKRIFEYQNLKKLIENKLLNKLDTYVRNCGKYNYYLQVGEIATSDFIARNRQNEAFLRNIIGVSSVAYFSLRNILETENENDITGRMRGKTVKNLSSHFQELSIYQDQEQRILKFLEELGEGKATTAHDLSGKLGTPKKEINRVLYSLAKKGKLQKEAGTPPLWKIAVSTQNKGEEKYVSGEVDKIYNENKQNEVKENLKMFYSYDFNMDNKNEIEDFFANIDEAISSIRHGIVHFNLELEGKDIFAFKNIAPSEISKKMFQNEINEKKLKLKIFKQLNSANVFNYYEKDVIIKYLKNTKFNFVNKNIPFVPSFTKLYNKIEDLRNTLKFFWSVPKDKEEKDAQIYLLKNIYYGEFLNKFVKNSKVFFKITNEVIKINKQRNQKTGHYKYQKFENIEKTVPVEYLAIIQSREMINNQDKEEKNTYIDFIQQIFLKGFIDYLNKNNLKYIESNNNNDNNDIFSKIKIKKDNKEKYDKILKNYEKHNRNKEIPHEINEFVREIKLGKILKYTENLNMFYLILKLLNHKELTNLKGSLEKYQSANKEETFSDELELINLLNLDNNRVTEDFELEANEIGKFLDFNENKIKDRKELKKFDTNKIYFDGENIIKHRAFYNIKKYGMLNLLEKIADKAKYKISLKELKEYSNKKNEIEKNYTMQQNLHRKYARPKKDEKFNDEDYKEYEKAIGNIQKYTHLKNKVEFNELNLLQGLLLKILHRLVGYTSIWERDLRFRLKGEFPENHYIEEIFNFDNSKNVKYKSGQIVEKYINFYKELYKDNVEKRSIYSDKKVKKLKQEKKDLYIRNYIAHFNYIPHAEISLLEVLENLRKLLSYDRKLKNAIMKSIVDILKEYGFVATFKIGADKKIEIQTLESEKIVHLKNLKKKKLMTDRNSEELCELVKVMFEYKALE
The description is as above. Particulars: label: body 32P for EMSA.

In data set [3] the target is T3, RBD #1L LwaCas13a (ADAR1 708-801 in Loop 1) (Leptotrichia wadei / Homo sapiens).
T3 chain: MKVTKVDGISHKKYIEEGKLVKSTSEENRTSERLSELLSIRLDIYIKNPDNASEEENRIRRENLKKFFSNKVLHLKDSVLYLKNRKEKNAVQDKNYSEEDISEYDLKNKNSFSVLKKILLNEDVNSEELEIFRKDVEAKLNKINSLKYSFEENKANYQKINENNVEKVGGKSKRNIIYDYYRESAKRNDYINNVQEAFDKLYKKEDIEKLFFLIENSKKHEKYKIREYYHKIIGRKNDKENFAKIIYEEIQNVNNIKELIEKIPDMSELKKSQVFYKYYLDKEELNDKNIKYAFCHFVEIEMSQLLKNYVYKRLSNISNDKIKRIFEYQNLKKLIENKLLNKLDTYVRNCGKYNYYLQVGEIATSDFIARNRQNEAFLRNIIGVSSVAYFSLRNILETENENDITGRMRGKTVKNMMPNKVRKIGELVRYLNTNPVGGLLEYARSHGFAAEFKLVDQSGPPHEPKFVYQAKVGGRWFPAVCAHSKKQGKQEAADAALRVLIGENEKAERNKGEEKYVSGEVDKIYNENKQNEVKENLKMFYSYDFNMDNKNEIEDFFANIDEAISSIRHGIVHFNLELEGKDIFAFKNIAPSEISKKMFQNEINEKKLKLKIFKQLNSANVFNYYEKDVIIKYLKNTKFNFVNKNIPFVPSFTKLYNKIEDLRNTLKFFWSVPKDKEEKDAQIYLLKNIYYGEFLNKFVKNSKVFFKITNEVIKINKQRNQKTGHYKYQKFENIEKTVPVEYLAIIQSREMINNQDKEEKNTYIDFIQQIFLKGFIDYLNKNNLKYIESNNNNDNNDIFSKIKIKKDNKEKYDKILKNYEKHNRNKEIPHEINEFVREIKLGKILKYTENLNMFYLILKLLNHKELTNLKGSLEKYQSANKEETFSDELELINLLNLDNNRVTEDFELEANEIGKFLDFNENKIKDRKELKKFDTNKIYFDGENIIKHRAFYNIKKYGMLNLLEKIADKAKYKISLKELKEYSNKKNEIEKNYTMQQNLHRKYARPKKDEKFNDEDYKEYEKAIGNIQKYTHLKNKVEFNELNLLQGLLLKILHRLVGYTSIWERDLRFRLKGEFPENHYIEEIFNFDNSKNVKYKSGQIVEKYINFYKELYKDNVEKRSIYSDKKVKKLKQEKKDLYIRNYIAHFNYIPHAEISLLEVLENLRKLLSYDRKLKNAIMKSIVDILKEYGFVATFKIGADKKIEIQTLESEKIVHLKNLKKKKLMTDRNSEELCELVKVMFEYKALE
The description is as above. Particulars: label: body 32P for EMSA.

Data set [4] concerns the target T4, RBD #4L LwaCas13a (Leptotrichia wadei / Homo sapiens). Described as above. Particulars: label: body 32P for EMSA.
Data set [5] concerns the target T5, RBD #3L LwaCas13a (Leptotrichia wadei / Homo sapiens). The data set is described as above. Particulars: label: body 32P for EMSA.
Data set [6] has as its target T6, dWT LwaCas13a (Leptotrichia wadei, R1046A/H1051A).
T6 chain: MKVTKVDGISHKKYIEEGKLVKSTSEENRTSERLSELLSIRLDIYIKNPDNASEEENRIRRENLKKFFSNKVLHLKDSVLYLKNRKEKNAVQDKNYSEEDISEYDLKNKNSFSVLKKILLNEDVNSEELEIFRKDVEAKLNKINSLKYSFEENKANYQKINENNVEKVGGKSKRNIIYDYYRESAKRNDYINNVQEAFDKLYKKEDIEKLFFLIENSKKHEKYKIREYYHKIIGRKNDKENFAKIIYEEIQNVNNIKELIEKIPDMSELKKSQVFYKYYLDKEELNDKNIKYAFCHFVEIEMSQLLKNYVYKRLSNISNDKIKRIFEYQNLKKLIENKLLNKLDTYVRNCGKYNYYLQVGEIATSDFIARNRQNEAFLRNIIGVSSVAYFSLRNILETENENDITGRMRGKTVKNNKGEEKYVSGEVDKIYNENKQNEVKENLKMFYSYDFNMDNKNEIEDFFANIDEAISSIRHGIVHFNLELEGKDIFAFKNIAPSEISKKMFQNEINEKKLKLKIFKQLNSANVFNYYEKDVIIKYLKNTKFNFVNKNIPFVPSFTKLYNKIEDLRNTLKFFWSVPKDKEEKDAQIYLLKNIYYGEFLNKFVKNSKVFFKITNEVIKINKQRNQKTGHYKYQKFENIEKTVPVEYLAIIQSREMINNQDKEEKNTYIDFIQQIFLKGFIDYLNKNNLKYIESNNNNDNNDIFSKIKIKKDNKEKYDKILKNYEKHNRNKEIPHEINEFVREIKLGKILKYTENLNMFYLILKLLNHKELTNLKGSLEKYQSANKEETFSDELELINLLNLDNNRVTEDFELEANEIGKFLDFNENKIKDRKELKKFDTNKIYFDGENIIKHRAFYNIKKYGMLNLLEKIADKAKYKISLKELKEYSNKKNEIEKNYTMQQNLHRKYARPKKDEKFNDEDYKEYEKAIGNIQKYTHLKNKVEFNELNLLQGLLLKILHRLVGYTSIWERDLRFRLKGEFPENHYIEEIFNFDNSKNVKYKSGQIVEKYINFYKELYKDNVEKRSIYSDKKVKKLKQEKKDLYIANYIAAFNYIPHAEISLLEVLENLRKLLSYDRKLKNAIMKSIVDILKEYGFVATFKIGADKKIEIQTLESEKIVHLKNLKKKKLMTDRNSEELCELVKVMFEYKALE
The experiment in a line: EMSA; crRNA complex; 5 mM MgCl2, 37 C. Particulars: label: body 32P for EMSA.

The target of data set [7] is T6, dWT LwaCas13a. In words: EMSA; crRNA complex; 50 mM Tris pH 8.0, 60 mM NaCl, 5 mM MgCl2, 37 C. Particulars: label: body 32P.
In data set [8] the target is T1, RBD #2L LwaCas13a (hnRNP A1 1-104 in …). The experiment in a line: cleavage_in_vitro; collateral cleavage of RNaseAlert.
Data set [9] concerns the target T2, RBD #6L LwaCas13a (ADAR1 126-202 in …). The description is as above.
The target of data set [10] is T4, RBD #4L LwaCas13a. The description is as above.
The target of data set [11] is T5, RBD #3L LwaCas13a. The description is as above.

As usually defined, the Kd is a measure of binding affinity in units of concentration.

B1: cr1_N crRNA ; T1_N target (105 nt) (ssRNA ; ssRNA)
RNA 1: GACUACCCCAAAAACGAAGGGGACUAAAACAAUCUGAGGGUCCACCAAACGUAAUGCG
RNA 2: GUCUGAUAAUGGACCCCAAAAUCAGCGAAAUGCACCCCGCAUUACGUUUGGUGGACCCUCAGAUUCAACUGGCAGUAACCAGAAUGGAGAACGCAGUGGGGCGCG
As to B1, the binding signal in data set [1] turned out to be 216 % higher than WT; in data set [2], 174 % higher than WT; in [3], 59 % higher than WT; with RBD #4L LwaCas13a [4], 518 % higher than WT; in the data set with RBD #3L LwaCas13a [5], 468 % higher than WT. This molecule gave a Kd in the data set with dWT LwaCas13a [6] of 16 nM.

B2: cr1_N crRNA ; T26_N_2 target (36 nt) (ssRNA ; ssRNA)
RNA 1: GACUACCCCAAAAACGAAGGGGACUAAAACAAUCUGAGGGUCCACCAAACGUAAUGCG
RNA 2: ACCCCGCAUUACGUUUGGUGGACCCUCAGAUUCAAC
In the data set with dWT LwaCas13a [7], B2 came in with a Kd of 46 nM.

B3: cr3_ssRNA1_0 crRNA ; T3_ssRNA1 target (ssRNA ; ssRNA)
RNA 1: GACUACCCCAAAAACGAAGGGGACUAAAACUAGAUUGCUGUUCUACCAAGUAAUCCAU
RNA 2: GGCCAGUGAAUUCGAGCUCGGUACCCGGGGAUCCUCUAGAAAUAUGGAUUACUUGGUAGAACAGCAAUCUACUCGACCUGCAGGCAUGCAAGCUUGGCGUAAUCAUGGUCAUAGCUGUUUCCUGUGUUUAUCCGCUCACAAUUCCACACAACAUACGAGCCGGAAGCAUAAAG
On to B3, for which the binding signal in data set [8] was 59 % higher than WT; in [9], 38 % higher than WT; in the data set with RBD #4L LwaCas13a [10] it was 91 % higher than WT; in the data set with RBD #3L LwaCas13a [11] it was 102 % higher than WT.
